Target: Chicken egg white-derived lysozyme (Sigma-Aldrich) (chicken) (UniProt P00698)
Test: SPR, Biacore T200; antigen immobilized, antibody as analyte, as in Example 1

Sequence of Chicken egg white-derived lysozyme (Sigma-Aldrich) (chicken) (P00698 19-147): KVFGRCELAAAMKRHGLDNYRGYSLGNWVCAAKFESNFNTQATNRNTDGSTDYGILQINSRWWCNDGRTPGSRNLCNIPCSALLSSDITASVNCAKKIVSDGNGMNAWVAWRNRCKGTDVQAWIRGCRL

Wild-type mouse anti-lysozyme antibody of clone Hy-HEL5
Kd: 177 pM
